From publication PMC2944003

target: human complement receptor 3 (CR3) on CR3-transfected CHO cells (CHO/CR3) (human) (UniProt P11215); experiment: flow cytometry on cells

fH SCRs 18–20 fused to the Fc fragment of murine IgG2a (Fc fusion), sequence (P08603 19-1231): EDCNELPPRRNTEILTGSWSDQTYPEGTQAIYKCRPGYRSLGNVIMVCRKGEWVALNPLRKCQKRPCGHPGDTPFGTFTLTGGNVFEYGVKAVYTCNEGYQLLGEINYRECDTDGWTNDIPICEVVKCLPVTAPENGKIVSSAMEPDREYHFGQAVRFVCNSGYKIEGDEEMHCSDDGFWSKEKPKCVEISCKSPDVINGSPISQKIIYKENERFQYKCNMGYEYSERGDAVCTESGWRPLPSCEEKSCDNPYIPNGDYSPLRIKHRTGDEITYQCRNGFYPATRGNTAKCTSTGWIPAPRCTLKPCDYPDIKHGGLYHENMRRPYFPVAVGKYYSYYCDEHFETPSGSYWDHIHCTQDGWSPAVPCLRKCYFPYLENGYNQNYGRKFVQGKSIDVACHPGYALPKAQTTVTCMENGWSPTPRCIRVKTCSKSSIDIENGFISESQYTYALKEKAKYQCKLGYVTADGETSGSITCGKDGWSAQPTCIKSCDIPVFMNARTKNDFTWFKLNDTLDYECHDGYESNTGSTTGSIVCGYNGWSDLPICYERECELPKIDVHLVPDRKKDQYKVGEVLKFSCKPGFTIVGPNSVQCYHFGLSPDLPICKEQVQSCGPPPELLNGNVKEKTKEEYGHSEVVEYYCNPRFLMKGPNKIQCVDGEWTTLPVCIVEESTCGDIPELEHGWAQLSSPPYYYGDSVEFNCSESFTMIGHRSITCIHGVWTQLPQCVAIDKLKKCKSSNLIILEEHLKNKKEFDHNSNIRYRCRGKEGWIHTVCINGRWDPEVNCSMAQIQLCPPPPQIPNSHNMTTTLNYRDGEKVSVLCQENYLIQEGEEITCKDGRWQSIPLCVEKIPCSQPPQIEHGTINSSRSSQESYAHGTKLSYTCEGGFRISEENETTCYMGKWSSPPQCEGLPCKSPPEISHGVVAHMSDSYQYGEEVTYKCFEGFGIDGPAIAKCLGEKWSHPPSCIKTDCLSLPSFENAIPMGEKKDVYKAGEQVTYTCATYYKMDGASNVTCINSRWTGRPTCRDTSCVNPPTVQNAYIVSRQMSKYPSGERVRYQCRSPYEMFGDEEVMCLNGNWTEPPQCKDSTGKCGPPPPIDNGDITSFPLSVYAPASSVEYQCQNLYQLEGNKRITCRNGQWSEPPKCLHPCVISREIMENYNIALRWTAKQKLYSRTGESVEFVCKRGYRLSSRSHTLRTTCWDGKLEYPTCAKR
fH SCRs 16–20 fused to the Fc fragment of murine IgG2a (Fc fusion), sequence (P08603 19-1231): as above
fH SCRs 6–10 fused to the Fc fragment of murine IgG2a (Fc fusion), sequence (P08603 19-1231): as above

Substance | fold increase in fluorescence over control levels [fold]
fH SCRs 6–10 fused to the Fc fragment of murine IgG2a (Fc fusion) | 3
fH SCRs 16–20 fused to the Fc fragment of murine IgG2a (Fc fusion) | 15
fH SCRs 18–20 fused to the Fc fragment of murine IgG2a (Fc fusion) | 30
